Test results published in article PMC6859074.

Assays:
[1] = target: 14 subunit-CCAN complex (constitutive centromere associated network), S. cerevisiae (S. cerevisiae) (UniProt P35201); test: AUC
[2] = target: S. cerevisiae Cenp-A nucleosome wrapped with the 147 bp Widom 601 sequence (S. cerevisiae) (UniProt P36012); test: AUC
[3] = target: 14 subunit-CCAN complex (constitutive centromere associated network), S. cerevisiae (S. cerevisiae) (UniProt P35201); test: SEC-MALS
[4] = target: S. cerevisiae Cenp-A nucleosome wrapped with the 147 bp Widom 601 sequence (S. cerevisiae) (UniProt P36012); test: SEC-MALS + AUC
[5] = target: 14 subunit-CCAN complex (constitutive centromere associated network), S. cerevisiae (S. cerevisiae) (UniProt P35201); test: cryo-EM structure

stoichiometry N [1]: 2 | stoichiometry N (CCAN per Cenp-A^Nuc) [2]: 1 | stoichiometry N [3]: 2 | stoichiometry N (CCAN per Cenp-A^Nuc) [4]: 2 | stoichiometry N [5]: 2
Substance: 14 subunit-CCAN complex (constitutive centromere associated network), S. cerevisiae (from UniProt P35201;Q12262;Q12748;P47167;P43618;Q2V2P8;P38265;P38907;Q06675;Q02732;P53298;P38313;Q12493;Q06162)
